# Measurements taken from article PMC6420462.
# Molecular target: T1, GluK5-WT (kainate receptor subunit GluK5) (UniProt Q16478)
# T1 sequence: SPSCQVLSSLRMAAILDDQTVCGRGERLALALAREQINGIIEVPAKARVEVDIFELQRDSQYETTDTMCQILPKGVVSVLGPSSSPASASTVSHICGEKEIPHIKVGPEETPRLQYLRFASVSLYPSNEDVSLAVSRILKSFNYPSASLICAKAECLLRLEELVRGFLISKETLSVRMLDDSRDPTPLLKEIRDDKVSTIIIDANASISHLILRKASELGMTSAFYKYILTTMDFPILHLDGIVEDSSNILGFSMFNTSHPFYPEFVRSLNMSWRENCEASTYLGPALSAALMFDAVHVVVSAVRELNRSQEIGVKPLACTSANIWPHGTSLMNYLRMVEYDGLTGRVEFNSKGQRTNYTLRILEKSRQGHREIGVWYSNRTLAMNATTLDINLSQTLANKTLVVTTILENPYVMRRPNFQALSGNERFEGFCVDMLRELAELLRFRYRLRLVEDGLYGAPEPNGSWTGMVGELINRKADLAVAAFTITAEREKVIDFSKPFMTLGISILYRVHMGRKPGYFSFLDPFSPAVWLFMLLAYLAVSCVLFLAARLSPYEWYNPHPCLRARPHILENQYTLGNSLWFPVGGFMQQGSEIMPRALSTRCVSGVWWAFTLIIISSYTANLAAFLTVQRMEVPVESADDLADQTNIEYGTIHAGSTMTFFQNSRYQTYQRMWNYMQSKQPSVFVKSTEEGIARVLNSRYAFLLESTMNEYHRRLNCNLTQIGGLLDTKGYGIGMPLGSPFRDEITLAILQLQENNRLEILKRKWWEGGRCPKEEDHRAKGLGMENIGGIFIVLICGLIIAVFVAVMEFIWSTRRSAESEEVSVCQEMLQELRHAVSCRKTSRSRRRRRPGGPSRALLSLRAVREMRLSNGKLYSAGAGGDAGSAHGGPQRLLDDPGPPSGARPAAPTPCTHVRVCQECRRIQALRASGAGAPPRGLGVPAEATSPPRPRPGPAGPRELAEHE
substance,measurement,value
GluK2-T659V (from UniProt Q13002 32-908) (receptor),"cell surface (biotinylated) GluK2-T659V, % of total, on co-expression with GluK5-WT in HEK293 cells",28%
same,"cell surface (biotinylated) GluK5, % of total, on co-expression with GluK2-T659V in HEK293 cells (GluK5 alone not detectable on the surface)",26%
same,increase in cell surface GluK2-T659V on co-expression with GluK5-WT against the homomeric subunit,7 fold
GluK2-S689N/N690S (from UniProt Q13002 32-908) (receptor),"cell surface (biotinylated) GluK2-S689N/N690S, % of total, on co-expression with GluK5-WT in HEK293 cells",12%
same,"cell surface (biotinylated) GluK5, % of total, on co-expression with GluK2-S689N/N690S in HEK293 cells (GluK5 alone not detectable on the surface)",10%
GluK2-WT (human GluK2a(Q) kainate receptor subunit) (from UniProt Q13002 32-908),"cell surface (biotinylated) GluK2, % of total, on co-expression with GluK5-WT in HEK293 cells",28%
same,"cell surface (biotinylated) GluK5, % of total, on co-expression with GluK2-WT in HEK293 cells (GluK5 alone not detectable on the surface)",27%
GluK2-A487T (from UniProt Q13002 32-908) (receptor),"cell surface (biotinylated) GluK2-A487T, % of total, on co-expression with GluK5-WT in HEK293 cells",18%
same,"cell surface (biotinylated) GluK5, % of total, on co-expression with GluK2-A487T in HEK293 cells (GluK5 alone not detectable on the surface)",20%
GluK2-A487L (from UniProt Q13002 32-908) (receptor),"cell surface (biotinylated) GluK2-A487L, % of total, on co-expression with GluK5-WT in HEK293 cells",14%
same,"cell surface (biotinylated) GluK5, % of total, on co-expression with GluK2-A487L in HEK293 cells (GluK5 alone not detectable on the surface)",14%
same,increase in cell surface GluK2-A487L on co-expression with GluK5-WT against the homomeric subunit,5 fold
